Source: paper PMC11654684, “The nucleocapsid architecture and structural atlas of the prototype baculovirus define the hallmarks of a new viral realm” (Science Advances, 2024)

Biological target: the molecule itself
Assay: cryo-EM structure; intact AcMNPV budded virions purified from Sf9 culture, TE buffer (50 mM Tris, 0.5 mM EDTA, pH 8.7); helical reconstruction (C14, 4.2 Å) and localized reconstruction of four neighbouring VP39 dimers of the tube (3.1 Å)

B1: major capsid protein (MCP) (natural protein)
chain: MALVPVGMAPRQMRVNRCIFASIVSFDACITYKSPCSPDAYHDDGWFICNNHLIKRFKMSKMVLPIFDEDDNQFKMTIARHLVGNKERGIKRILIPSATNYQDVFNLNSMMQAEQLIFHLIYNNENAVNTICDNLKYTEGFTSNTQRVIHSVYATTKSILDTTNPNTFCSRVSRDELRFFDVTNARALRGGAGDQLFNNYSGFLQNLIRRAVAPEYLQIDTEELRFRNCATCIIDETGLVASVPDGPELYNPIRSSDIMRSQPNRLQIRNVLKFEGDTRELDRTLSGYEEYPTYVPLFLGYQIINSENNFLRNDFIPRANPNATLGGGAVAGPAPGVAGEAGGGIAV
notes: Major capsid protein VP39 (AC89) of Autographa californica multiple nucleopolyhedrovirus, as it stands in the budded virion; the model comprises Val15 to Asn320 (loop Asp27 to Ser34 built only in some subunits); the last 30 residues are not visible; Native protein in the nucleocapsid of intact budded virions; contains a CCCH zinc finger; also called VP39; AC89; source: AcMNPV budded virions …
With B1 the “stoichiometry N” value was 2.
